{
  "source": "the DeepSol protein solubility set",
  "data": [
    {"test": "soluble on expression in E. coli; label from the status in PepcDB or PDB records", "values": [
      {"sequence": "MGSDKIHHHHHHVAKSIAGGVRPGIIIDIEHRLLKQIIVGKQKAAASMFDDLDRELENDANKLAIERDAVFERLSKQIQARQVYEAVSKQLITTVNSTLDNQLASPELLIQHSGINASQMLMLELLQQKNLDLSRLRLLIADLPWLARDLTNMVNSPSFRHKRQQRSDVKVTEIKLVLNFIGVENLRLLIPYYCLRNWLPTGHANLLWTTRKLWRYAMVTGIAAKALAQLNEQDMATAYTSSLLYQLGVSVVLKNGAKVYESIWGNWLREASASRDKELHDAVLATEFPAEDIYQQVLQHAHTLNWRLPELLDFSASGLTQTQRELDTCLSYSELSTEAALVARASCYAKVLMLDEMRLISPKEKQMMFDYYQLSEQEQIRLKGQNYRKLDLY", "soluble on expression in E. coli": "not soluble"},
      {"sequence": "MIKWGFIGCGEVTKTKSGPAFQKVEHSEVVAVMSRDGAKAKAYAKERGIRKWYDDAQELIDDPEVNAIYIATPPSSHATYAIMAMKAGKPAYIEKPMAVTYEECTRINRISKETGVPCFVAYYRRYLPYFQKVKEMVENGSIGNVINVQVRFAQPPRDLDYNRENLPWRVQADIAGGGYFYDLAPHQIDLLQDMFGCILEASGYKSNRGGLYPAEDTLSACFQFDNGLVGSGSWCFVAHDSAREDRIEIIGDKGMICFSVFTYEPIGLHTERGREEICIGNPEHVQQPLIQAVVDHLLGKSVCSCDGESATLTNWVMDKILGKL", "soluble on expression in E. coli": "not soluble"},
      {"sequence": "MTSTGPETSETPGATTQRHGFGIDVGGSGIKGGIVDLDTGQLIGDRIKLLTPQPATPLAVAKTIAEVVNGFGWRGPLGVTYPGVVTHGVVRTAANVDKSWIGTNARDTIGAELGGQQVTILNDADAAGLAETRYGAGKNNPGLVVLLTFGTGIGSAVIHNGTLIPNTEFGHLEVGGKEAEERAASSVKEKNDWTYPKWAKQVIRVLIAIENAIWPDLFIAGGGISRKADKWVPLLENRTPVVPAALQNTAGIVGAAMASVADTTH", "soluble on expression in E. coli": "not soluble"},
      {"sequence": "MSLVVFPFKHEHPEVLLHNVRVAAAHPRVHEVLCIGYERDQTYEAVERAAPEISRATGTPVSVRLQERLGTLRPGKGDGMNTALRYFLEETQWERIHFYDADITSFGPDWITKAEEAADFGYGLVRHYFPRASTDAMITWMITRTGFALLWPHTELSWIEQPLGGELLMRREVAAMLYEDERVRRRSDWGIDTLYTFVTVQQGVSIYECYIPEGKAHRLYGGLDDLRTMLVECFAAIQSLQHEVVGQPAIHRQEHPHRVPVHIAERVGYDVEATLHRLMQHWTPRQVELLELFTTPVREGLRTCQRRPAFNFMDEMAWAATYHVLLEHFQPGDPDWEELLFKLWTTRVLNYTMTVALRGYDYAQQYLYRMLGRYRYQAALENGRGHPVPPRAALSTA", "soluble on expression in E. coli": "soluble"},
      {"sequence": "MKLLLLLCISCIPLAYSHDGEPFDYLMFTTIYPTAVCRADDDSVPESCEIPSGTPQWSIHGLWPNFENGSYPQNCRGTPRHFDENLIKSIEDRLVVVWPNLYPKKTIQSFWKHEYDKHGTCAQSEKLFESELAYFTEVMKVFDSIDVAGGLKSVGPSEKPITSSDLKNALSGVTSGKTFQFHCLRDKKTKQFLLGDIRLCLNKDLTIRDCPTDGKHPNRVSRFERSIGRNRRGPPLPSFQPCPAEFIYLPEMSSISKSSDSTSPSIFGRIWSAIKNIGN", "soluble on expression in E. coli": "not soluble"},
      {"sequence": "TGALMASSPQDIKFQDLVVFILEKKMGTTRRALLMELARRKGFRVENELSDSVTHIVAENNSGSDVLEWLQAQKVQVSSQPELLDVSWLIECIGAGKPVEMTGKHQL", "soluble on expression in E. coli": "soluble"},
      {"sequence": "MKKNTSKTTMRINKQDALCTPHSHDPRDLQNMLDGGEYAPFVSPPMLESNFIQVNRRGESIYLHNRANWVTVGICFSSSTHKIPNVMLLAHLTPGAQKDTETLFKSLLTSPPAEKLVLTRFLPLQFVTLSVHDAENMSLKVKLVSGRAYYLQLCTSAYKQDTLFSQWVALISLLNQEKAKVSKVSEVSSLSGITNSTDITGSMDVTDVTTFTAILTPYMYAGTGPEHVRDSIDFPEFTDITDITDVTDLPENEVPEVPDVRIVTEVIEVREATEVTDSSDITNCSGVTVVFENNDLIRAKQEEKEKLKNILKPGCLQDTKSKRYFQTTLTPVESEANTSKEMKDKTSEEKMPDFQSTALKAEESRSLRTESNTSVLSPHIKSPSNFLKLVPHLSAPFSRE", "soluble on expression in E. coli": "soluble"},
      {"sequence": "MTDHTMKKNPVSIPHTVWYADDIRRGEREAADVLGLTLYELMLRAGEAAFQVCRSAYPDARHWLVLCGHGNNGGDGYVVARLAKAVGIEVTLLAQESDKPLPEEAALAREAWLNAGGEIHASNIVWPESVDLIVDALLGTGLRQAPRESISQLIDHANSHPAPIVAVDIPSGLLAETGATPGAVINADHTITFIALKPGLLTGKARDVTGQLHFDSLGLDSWLAGQETKIQRFSAEQLSHWLKPRRPTSHKGDHGRLVIIGGDHGTAGAIRMTGEAALRAGAGLVRVLTRSENIAPLLTARPELMVHELTMDSLTESLEWADVVVIGPGLGQQEWGKKALQKVENFRKPMLWDADALNLLAINPDKRHNRVITPHPGEAARLLGCSVAEIESDRLHCAKRLVQRYGGVAVLKGAGTVVAAHPDALGIIDAGNAGMASGGMGDVLSGIIGALLGQKLSPYDAACAGCVAHGAAADVLAARFGTRGMLATDLFSTLQRIVNPEVTDKNHDESSNSAP", "soluble on expression in E. coli": "soluble"},
      {"sequence": "MRYVIAVKSPIYGKQGAFLAYQFAESLIKKEHEISQIFFFQDGVSNGNALVYPANDEVNLQKHWQMFSITYNVPLHLCVAASQRRGVVDNLTTPTTAHYNLAEGFTIAGLGEFIAASLNADRVITL", "soluble on expression in E. coli": "soluble"},
      {"sequence": "MTKIACVIVTYNRKQLLEEALNSVLIQTESPEYVFVIDNASTDGTEKYINDKFNFDNRQWHYVRCSQNLGGSAGFAQGMRLALQTDCSWISISDDDAIFEPGYFAALRKGIKQYPEQSVFSGSVLLPDGKHDMMHREVITNSATLTVRCVTDETYKHDFSYDIFSFVGILLSRQVIEAIGLPEQDYFIRFDDFEYAVRALKFGRFMNLSAAKVLHKTTYTRSALEHHHHHH", "soluble on expression in E. coli": "not soluble"},
      {"sequence": "AEALAAGQRRIAKGERDFKDRVGFLRGRARPASTLITRFIADHQGHREGPDGLRWGVESICTQLTELGVPIAPSTYYDHINREPSRRELRDGELKEHISRVHAANYGVYGARKVWLTLNREGIEVARCTVERLMTKLGLSGTTRGKARRTTIADPATARPADLVQRRFGPPAPNRLWVADLTYVSTWAGFAYVAFVTDAYARRILGWRVASTMATSMVLDAIEQAIWTRQQEGVLDLKDVIHHTDRGSQYTSIRFSERLAEAGIQPSVGAVGSSYDNALAETINGLYKTELIKPGKPWRSIEDVELATARWVDWFNHRRLYQYCGDVPPVELEAAYYAQRQRPAAG", "soluble on expression in E. coli": "soluble"},
      {"sequence": "MGSDKIHHHHHHMKLAFICTEKLPAPAVRGGAIQMMIDGVTPYFSSRYDLTIFSIEDPSLPKRETKDGVHYIHLPKEHYREAVAEELRASSFDLIHVFNRPLNVSLYKKASPNSKIVLSLHNEMFSEKKMTFAQGKEVLDNVSMITTVSEFIKQTVIERFPEAEDITKVVYSGVDLNSYPPVWTMKGSAVRKTYRKKYGIEDKKVILFAGRLSPTKGPHLLIHSMRRILQQHPDAVLVIAGGKWFSDDSENQYVTYLRTLALPYRDHIIFTKFIPADDIPNLFLMADVFVCSSQWNEPLARVNYEAMAAGTPLITTNRGGNGEVVKHEVTGLVIDSYNKPSSFAKAIDRAFTDQELMNKMTKNARKHVEALFTFTHAAKRLNTVYQSVLTPKNKQFPPPFLTQNFDLSSINQLFVKAKT", "soluble on expression in E. coli": "not soluble"},
      {"sequence": "MSILVKNNIHWVGQRDWEVRDFHGTEYKTLRGSSYNSYLIREEKNVLIDTVDHKFSREFVQNLRSEIDLADIDYIIINHAEEDHAGALTELMAQIPDTPIYCTANAIDSINGHHHHPEWNFKVVKTGDTLDIGNGKQLIFVETPMLHWPDSMMTYMTGDAVLFSNDAFGQHYCDERLFNDEVDQTELFEQCQRYYANILTPFSRLVTPKITEILGFNLPVDMIATSHGVVWRDNPTQIVELYLKWATDYQEDRITIFYDTMSNNTRMMADAIAQGINEVDPNVAVKIFNVARSDKNEILTNVFRSKGVLVGTSTMNNVMMPKIAGLVEEMTGLRFRNKRASAFGSHGWSGGAVDRLSTRLQDAGFEMSLSLKAKWRPDLDALELCRQHGRDIARQWALAPLPETTQQIAPVEETITCTAADLGPKMQCSVCQWIYDPALGEPLQDVAPGTPWNDVPDNFLCPECSLGKDVFDVLATEAK", "soluble on expression in E. coli": "not soluble"},
      {"sequence": "MTLVASSENTGLCPMTFDDSSGQTSHMLFQRLQYQRKTGRFCDVEIVVQNKSFAAHRNILAAHSPYFDAIFKYCKITKEQLTINSKSPQVFELFLNYMYSGTVIIDRSSVSELLRFANNFLIVKLKVYCAAYLDRYLDAANCLSIRTLAQRYNLPGLVKSATDYFDSNLNRCLLESRDIIGYTYTQLTRLIGDPKYVDCITSDTYLKLIVRWVGEEVSKREEIFRLLLESCEFREVSADTLEFLLDYSPLLSKSQKSRFLLLHVMETNNMLMEKYSTQLSSLRQKIVDLPILHDPSQFEDDIYDSSDSEEDPDDYIADGHPTSAQVVEYGNDVNNRLKMKIAFQPGNEKKRLKRPKGMKKHHLHPIPPINATENESIPWIDEDEIDGVYATCSLEGCHTYGPVDNLDPDDCEDEEDQPDENGPSTCIFCGLRTANEELLEKHKARHHNRNTYYMCHLCEFETNWSKQFYLHCAEHWTEIPYRCETCPFTSNEIQEFLTHRLQHTDERFFKCGECAWKGRTRSQLFAHERMHSVLDDRSLHCEECGRGFQQHSTLDHHVASHNDPRPYICEDCGFATKTADHLSLHRRQHTGDNFSCHIAGCDYSSTKKSQLAAHLRTHMAVRAHLCKICGRGFIEKSHLVRHERIHLEEKPFKCDQCEYASSRRDKLKEHIIKHHNSEVLTFQKTQRRKYKRQRMLAAASNIVNNPDALFRPITSDDAVSNWQATNDFSTYSPNPNDYGGPSTYGNPSSPQRAFSVVHPSQHQHHAQSPGCMSMMNVPLRDNHHQMQRQDSPGDSVGGGQGGGGGGGPEGSDNTHGVLMTPNLVMRSPHNRSAVQPQFNNLSTNSDPQQQQQQQQLRPFSLPTYGQMDLAQAAQLQQLQQQLQAAGLPPTGTPNNQDNSNNAWNPWNVQ", "soluble on expression in E. coli": "not soluble"},
      {"sequence": "MNLNKNLPTGTRDKLFREARASYQIEQQVNHYFAKRGFKRIETPVIEFEDVFSSEHQADAKLYRFFDEKGRLTVLRPDMTLPIGRVVSTTGVTLPLKLSYSGKIFRANEDFGGEQNEQTQAGIEIIGYPSIKAEIECILSGIGVLNALEIPNFQIELGHAAIYRRVIHLLNLPETAEMDFRLLIQNKSLTGIQQFVTENPSTLDDFILALPRLFGPATTILKQAKNLTTDKGILTALTEMETIVDAVSYAADISVDLGLVQDFHYYTGIIFRGYADLAADNFLSGGRYDHLLEQFTSSSSPAVGLALNLDSLTT", "soluble on expression in E. coli": "not soluble"},
      {"sequence": "MITLTLFGQETSSSALIFAYCNAATGSNTMSTDCRRRLNKDLYLLIPEHPMNPKQFERWKSQLSQLSPQQLRALQGEIDRSLHQNESALLTEEERDAIAHLFS", "soluble on expression in E. coli": "not soluble"},
      {"sequence": "MNNSAFTFQTLHPDTIMDALFEHGIRVDSGLTPLNSYENRVYQFQDEDRRRFVVKFYRPERWTADQILEEHQFALQLVNDEVPVAAPVAFNGQTLLNHQGFYFAVFPSVGGRQFEADNIDQMEAVGRYLGRMHQTGRKQLFIHRPTIGLNEYLIEPRKLFEDATLIPSGLKAAFLKATDELIAAVTAHWREDFTVLRLHGDCHAGNILWRDGPMFVDLDDARNGPAVQDLWMLLNGDKAEQRMQLETIIEAYEEFSEFDTAEIGLIEPLRAMRLVYYLAWLMRRWADPAFPKNFPWLTGEDYWLRQTATFIEQAKVLQEPPLQLTPMY", "soluble on expression in E. coli": "soluble"}
    ]}
  ]
}
